This note sets out measurements from US20250270167A1.

The assay addresses GHR.

In turn, “rhGH standard product of National Institutes for Food and Drug Control (from UniProt P01241) (ligand)” came in with an EC50 (chemiluminescence value, ONE-Glo, HEK293-GHR cells) of 0.012 µg/mL.

“Polyethylene Glycol Recombinant Human Somatropin Injection (commercially available PEG-rhGH drug, Changchun GeneScience Pharmaceutical Co., Ltd.) (from UniProt P01241) (ligand)” returned an EC50 (chemiluminescence value, ONE-Glo, HEK293-GHR cells) of 0.0686 µg/mL and a Relative activity (%) of 18%.

In turn, “Jintropin (commercially available rhGH drug, Changchun GeneScience Pharmaceutical Co., Ltd.) (from UniProt P01241) (ligand)” returned an EC50 (chemiluminescence value, ONE-Glo, HEK293-GHR cells) of 0.0126 µg/mL.
